Results from publication PMC11871066, “Structure-based discovery of hydrocarbon-stapled paxillin peptides that block FAK scaffolding in cancer” (Nature Communications, 2025).

Assays:
Assay in all cases: SPR
[1] = target: T1, Paxillin LD2 peptide (141-…-153); details: chain shown with the change, right panel, peptide concentration not given
T1 chain: NLSELDRLLLELN

[2] = target: T2, Peptide 2013, unstapled version of 1907, P49023; details: chain shown with the change; right panel; peptide concentration not given
T2 chain: NL

[3] = target: T3, Stapled peptide 1907, P49023; details: chain shown with the change; right panel; peptide concentration not given
T3 chain: NL

- ratio to parent [2]: 33
- ratio to parent [3]: 238
B1: Biotinylated AviTag FAK FAT protein, Q05397 I936E; L994E (protein)
chain: MAAAYLDPNLNHTPNSSTKTHLGTGMERSPGAMERVLKVFHYFESNSEPTTWASIIRHGDATDVRGIIQKIVDSHKVKHVACYGFRLSHLRSEEVHWLHVDMGVSSVREKYELAHPPEEWKYELRIRYLPKGFLNQFTEDKPTLNFFYQQVKSDYMLEIADQVDQEIALKLGCLEIRRSYWEMRGNALEKKSNYEVLEKDVGLKRFFPKSLLDSVKAKTLRKLIQQTFRQFANLNREESILKFFEILSPVYRFDKECFKCALGSSWIISVELAIGPEEGISYLTDKGCNPTHLADFTQVQTIQYSNSEDKDRKGMLQLKIAGAPEPLTVTAPSLTIAENMADLIDGYCRLVNGTSQSFIIRPQKEGERALPSIPKLANSEKQGMRTHAVSVSETDDYAEIIDEEDTYTMPSTRDYEIQRERIELGRCIGEGQFGDVHQGIYMSPENPALAVAIKTCKNCTSDSVREKFLQEALTMRQFDHPHIVKLIGVITENPVWIIMELCTLGELRSFLQVRKYSLDLASLILYAYQLSTALAYLESKRFVHRDIAARNVLVSSNDCVKLGDFGLSRYMEDSTYYKASKGKLPIKWMAPESINFRRFTSASDVWMFGVCMWEILMHGVKPFQGVKNNDVIGRIENGERLPMPPNCPPTLYSLMTKCWAYDPSRRPRFTELKAQLSTILEEEKAQQEERMRMESRRQATVSWDSGGSDEAPPKPSRPGYPSPRSSEGFYPSPQHMVQTNHYQVSGYPGSHGITAMAGSIYPGQASLLDQTDSWNHRPQEIAMWQPNVEDSTVLDLRGIGQVLPTHLMEERLIRQQQEMEEDQRWLEKEERFLKPDVRLSRGSIDREDGSLQGPIGNQHIYQPVGKPDPAAPPKKPPRPGAPGHLGSLASLSSPADSYNEGVKLQPQEISPPPTANLDRSNDKVYENVTGLVKAVEEMSSKIQPAPPEEYVPMVKEVGLALRTLLATVDETIPLLPASTHREIEMAQKLLNSDEGELINKMKLAQQYVMTSLQQEYKKQMLTAAHALAVDAKNLLDVIDQARLKMLGQTRPH
- ratio to parent [1]: 4
- response ([1]; plateau of the sensorgram near the end of injection (about 75 s), parent: est. 58, read off a plot): 14 RU
